Results: US7611721B1, “Adjuvant combination formulations” (priority 2000, dated 2009)

What was measured:
spleen cells [1] = assay: Secretion of IL-4 by spleen cells (ELISA); assay type: cell-based, Balb/c mice
Method: (§1) For proliferation assays and in vitro cytokine analysis, spleen cells were obtained from mice at the indicated time points. Single cell suspensions were prepared from pools of 3-5 mice as indicated in Results. For proliferation and cytokine analysis, cells were suspended in round bottom 96 well culture plates precoated overnight with HIV peptide antigens, control proteins, or RPMI-10 only. Spleen cells were added at 5×10^5 cells/well using culture medium having 2× supplements. Cell culture supernatants were harvested from triplicate wells for cytokine analysis three or six days after culture initiation. Immediately after supernatant harvest, cultures were pulsed with ^3H-thymidine for 18-24 hours, and harvested to quantify cell proliferation.
(§2) For cytokine analysis, cell culture supernatants were added to wells coated with BVD6-11B11 (for anti-IL4), or R4-6A2 (for interferon-gamma). After incubation and washing, wells were developed using biotin-labeled BVD6-24G2 (for IL4) or XMG 1.2 (for interferon-gamma). The concentration of cytokines was determined using a standard curve prepared from recombinant murine interferon-gamma or interleukin-4. All cytokine reagents were purchased from Pharmingen (San Diego, Calif.).
(§3) Interleukin-4 secreted into culture by spleen cells stimulated with 25 μg T1SP10MN(A) (−Cys) was measured. Spleen cells were harvested from pools of five Balb/c female mice and cultured with the indicated antigenic stimuli (50 ng IL-12, 10 μg GM-CSF, 50 μg MPL™ as indicated) for either three or six days. Interleukin-4 levels were determined by ELISA, and compared to a standard having a known concentration. Blank wells indicate that the assay could not detect Interleukin-4 from those culture conditions. The lower limit of detection sensitivity was 22 Units/ml.
Cells were cultured for a total of 96 hours. Cell culture supernatants were analyzed for IL-4 by ELISA. All values were after subtraction from those determined from supernatants of cells stimulated with 10 μg of an irrelevant protein (lysozyme). Results which were below the limit of detection, after subtraction from stimulation induced with lysozyme are indicated as “bd”. The adjuvants were 40 ng IL-12, 10 μg GM-CSF and 50 μg MPL™.

spleen cells [2] = assay: Secretion of interferon-gamma by spleen cells (ELISA); assay type: cell-based, Balb/c mice; conditions: for Secretion of Interferon-gamma, Con A 1 μg/ml: Experiment 1
Method: as §1, §2
as §3, with “Interferon-gamma” for “Interleukin-4”, “(−Cys).” for “(−Cys) was measured.”, “(the same” for “(50 ng IL-12, 10 μg GM-CSF, 50 μg MPL™”, “in Example 6)” for “indicated)”, “4 picograms/ml.” for “22 Units/ml.”
Cells were cultured for a total of 96 hours. Cell culture supernatants were analyzed for interferon-gamma by ELISA. All values were after subtraction from those determined from supernatants of cells stimulated with 10 μg of lysozyme. Results which were below the limit of detection, after subtraction from stimulation induced with lysozyme are indicated as “bd”. The adjuvants were the same as those in Example 12.

T1SP10MN(A) (−Cys) [3] = conditions: Experiment 3; pooled, n=5 Swiss-Webster; 15 days after secondary immunization
Method: (§4) The protocols of Experiment 2 were followed, with Swiss-Webster mice used instead of Balb/c mice. Only reciprocal anti-peptide IgG endpoint titers and vaginal lavage endpoint reciprocal endpoint IgG and IgA antibody titers were measured in this experiment.
Aqueous MPL™ was delivered at 50 μg per dose. Recombinant murine IL-12 was delivered at 40 ng/mouse. Recombinant murine GM-CSF was delivered at 10 μg/mouse.

T1SP10MN(A) (−Cys) [4] = conditions: Experiment 3, 14 days after second immunization
Method: as §4
Reciprocal anti-T1SP10MN(A) (−Cys) IgG endpoint titers were measured from geometric means from individual Swiss-Webster mice (GMT), obtained 14 days after the second immunization. IgG1 and IgG2a subclass endpoint titers were also measured from pooled serum. For recipients of Freund's adjuvants, mice were primed with peptide emulsified in CFA, and boosted with IFA. […] Aqueous MPL™ was delivered at 50 μg per dose. Recombinant murine IL-12 was delivered at 40 ng/mouse. Recombinant murine GM-CSF was delivered at 10 μg/mouse.

spleen cells [5] = assay type: cell-based, Balb/c mice
Method: as §1
Groups of five Balb/c female mice were immunized with 25 μg T1SP10MN(A) (−Cys) and the indicated adjuvants on days 0 and 28. Spleen cells were established in culture on day 56, and harvested for measurement of ^3H-thymidine incorporation 96 hours later. Mice were immunized with 50 ng IL-12, […], 50 μg MPL™ in an aqueous formulation, or as a stable emulsion with 2% SE. Data are presented as the delta cpm values as compared to proliferation values measured from cells grown in culture without stimulation.
Cells were cultured for a total of 96 hours. ^3H-thymidine was added to cultures for the last 18 hours. Data are presented as a proliferation index normalized to cells stimulated in culture with ConA ([mean cpm Antigen/mean cpm ConA]−[mean cpm medium/mean cpm ConA])×100. As a result, cells cultured in medium have a background proliferation of 0. Proliferation values less than cells grown in culture unstimulated are in parentheses.

T1SP10MN(A) (−Cys) [6] = system: T1SP10MN(A) (−Cys)
Method: Mice were immunized subcutaneously in the rump, in a total volume of 0.2 ml equally divided on each side of the tail. Immunizations were administered at varying time intervals, as indicated below. Antigen and cytokines were diluted in phosphate buffered saline to the appropriate concentrations and formulated with adjuvants less than 16 hours prior to immunization, under sterile conditions. Vaccines were mixed by gentle agitation, and stored at 4° C. Formulations were mixed by vortex immediately prior to immunization.
Animals were bled prior to initial immunization, and at indicated time points. Serum was analyzed from individual mice, or as pools from mice within groups.
For analysis of HIV peptide-specific antibody and subclass distribution, peptide was suspended in either carbonate buffer (15 mM Na2CO3, 35 mM NaHCO3, pH 9.6), or PBS, at a concentration of 1 μg/ml and plated to 96 well microtiter plates (Nunc) in a volume of 100:1. After overnight incubation at 37° C., plates were washed, and blocked (0.1% gelatin/PBS) at room temperature for 2-4 hours. ELISA plates were washed with wash buffer (PBS, 0.1% Tween™20) before addition of serially diluted serum (PBS, 0.1% gelatin, 0.05% Tween™20, 0.02% sodium azide). After a four hour incubation, wells were washed and appropriate dilutions of biotinylated anti-isotype/subclass antibodies were added for incubation at 4° C. overnight. Wells were washed and incubated with strepavidin-conjugated horseradish peroxidase. After incubation, wells were washed, and developed with ABTS. Wells were read at 405 nm. Titers were standardized using control sera.
Reciprocal anti-HIV peptide-specific IgG endpoint titers were measured from pooled serum (n=5 Balb/c) at the indicated time points after initial immunization. Mice were immunized subcutaneously in the rump with 25 μg of T1SP10MN(A) (−Cys), unless otherwise indicated, on day 0, and on day 27. For recipients of Freund's adjuvants, mice were primed with peptide emulsified in CFA, and boosted with IFA. MPL™ SE was provided as an emulsion containing 2% squalene oil and 50 μg MPL™ per dose. SE is an oil-in-water emulsion vehicle consisting of squalene, glycerol, and an emulsifying agent. Recombinant murine IL-12 was delivered at 50 ng/mouse. Recombinant murine GM-CSF was delivered at 10 μg/mouse.
Reciprocal endpoint IgG subclass titers were measured from pooled serum (n=5 Balb/c) six weeks after initial immunization, two weeks after secondary immunization. Mice were immunized subcutaneously in the rump with 25 μg of peptide, unless otherwise indicated. For recipients of Freund's adjuvants, mice were primed with peptide emulsified in complete Freund's adjuvant, and boosted with incomplete Freund's adjuvant on weeks four and six. MPL™ SE was provided as an emulsion containing 2% squalene oil and 50 μg MPL™ per dose. SE is an oil-in-water emulsion vehicle consisting of squalene, glycerol, and an emulsifying agent. Recombinant murine IL-12 was delivered at 50 ng/mouse. Recombinant murine GM-CSF was delivered at 10 μg/mouse.
Mice were immunized subcutaneously in the rump, in a total volume of 0.2 ml equally divided on each side of the tail. Immunizations were administered on days 0 and 21 with 25 μg of the HIV peptide, together with the indicated amount of adjuvant(s).
Reciprocal anti-peptide IgG endpoint titers were measured from either geometric means from individual mice (GMT) or from pooled serum (n=5 Balb/c), obtained 14 days after the second immunization. IgG1 and IgG2a subclass endpoint titers were also measured from pooled serum.

[7] = Experiment 2, 96 hours culture, after subtraction of lysozyme value
[8] = Experiment 2, 96 hours culture, after subtraction of lysozyme value, bd = below limit of detection
[9] = Experiment 1, immunized days 0 and 28, culture day 56, 96 hours
[10] = Experiment 2, 96 hours culture, values in parentheses are less than unstimulated cells
[11] = Experiment 1, pooled serum n=5 Balb/c, 25 μg peptide s.c. day 0 and 27
[12] = Experiment 1, pooled serum n=5 Balb/c, six weeks after initial, two weeks after secondary immunization, 25 μg peptide
[13] = Experiment 2, pooled serum n=5 Balb/c, 14 days after second immunization
[14] = Experiment 4, individual Balb/c mouse, day 41, 13 days after secondary immunization (days 0 and 28)
[15] = Experiment 4, pooled serum n=5 Balb/c, day 41, 13 days after secondary immunization

B1: rIL-12: Recombinantly expressed murine IL-12 (Genetics Institute) (protein, UniProt P43431 23-215; P43432 23-335, looked up)
Interleukin-12 subunit alpha: RVIPVSGPARCLSQSRNLLKTTDDMVKTAREKLKHYSCTAEDIDHEDITRDQTSTLKTCLPLELHKNESCLATRETSSTTRGSCLPPQKTSLMMTLCLGSIYEDLKMYQTEFQAINAALQNHNHQQIILDKGMLVAIDELMQSLNHNGETLRQKPPVGEADPYRVKMKLCILLHAFSTRVVTINRVMGYLSSA
Interleukin-12 subunit beta: MWELEKDVYVVEVDWTPDAPGETVNLTCDTPEEDDITWTSDQRHGVIGSGKTLTITVKEFLDAGQYTCHKGGETLSHSHLLLHKKENGIWSTEILKNFKNKTFLKCEAPNYSGRFTCSWLVQRNMDLKFNIKSSSSSPDSRAVTCGMASLSAEKVTLDQRDYEKYSVSCQEDVTCPTAEETLPIELALEARQQNKYENYSTSFFIRDIIKPDPPKNLQMKPLKNSQVEVSWEYPDSWSTPHSYFSLKFFVRIQRKKEKMKETEEGCNQKGAFLVEKTSTEVQCKGGNVCVQAQDRYYNSSCSKWACVPCRVRS
Secretion of IL-4, Con A 1 μg/ml (spleen cells [1]; Experiment 1, Three Day Cultures, detection limit 22 Units/ml): 156 Units/ml
Secretion of IL-4, Con A 5 μg/ml (spleen cells [1]; [7]): 411 pg/mL
Secretion of IL-4, HIV Peptide 1.1 μg/ml (spleen cells [1]; [8]): 15 pg/mL
Secretion of IL-4, HIV Peptide 3.3 μg/ml (spleen cells [1]; [8]): bd
Secretion of IL-4, HIV Peptide 10 μg/ml (spleen cells [1]; [8]): bd
Secretion of Interferon-gamma, Con A 1 μg/ml (spleen cells [2]; Six Day Cultures): 8.4 picograms/ml
Secretion of Interferon-gamma, Con A 1 μg/ml (spleen cells [2]; Three Day Cultures, detection limit 4 picograms/ml): 5.9 picograms/ml
Secretion of Interferon-gamma, Con A 5 μg/ml (spleen cells [2]; [7]): 179 units/ml
Secretion of Interferon-gamma, HIV Peptide 1.1 μg/ml (spleen cells [2]; [8]): 41 units/ml
Secretion of Interferon-gamma, HIV Peptide 3.3 μg/ml (spleen cells [2]; [8]): 2 units/ml
Secretion of Interferon-gamma, HIV Peptide 10 μg/ml (spleen cells [2]; [8]): 4 units/ml
Vaginal lavage reciprocal anti-HIV peptide IgA endpoint titer (T1SP10MN(A) (−Cys) [3]): <10
Vaginal lavage reciprocal anti-HIV peptide IgG endpoint titer (T1SP10MN(A) (−Cys) [3]): <10
Reciprocal anti-HIV peptide IgG (GMT) endpoint titer (T1SP10MN(A) (−Cys) [4]; individual Swiss-Webster mice): 500
Reciprocal anti-HIV peptide IgG1 (pool) endpoint titer (T1SP10MN(A) (−Cys) [4]; pooled serum Swiss-Webster): <1000
Reciprocal anti-HIV peptide IgG2a (pool) endpoint titer (T1SP10MN(A) (−Cys) [4]; pooled serum Swiss-Webster): <1000
Spleen cell proliferation, Con A 1 μg/ml (spleen cells [5]; [9]): 42,612 delta cpm
Spleen cell proliferation, HIV Peptide 1.1 μg/ml (spleen cells [5]; [9]): 308 delta cpm
Spleen cell proliferation, HIV Peptide 3.3 μg/ml (spleen cells [5]; [9]): 692 delta cpm
Spleen cell proliferation, HIV Peptide 10 μg/ml (spleen cells [5]; [9]): 809 delta cpm
Spleen cell proliferation index normalized to ConA, Con A 5 μg/ml (spleen cells [5]; Experiment 2, 96 hours culture): 99.1
Spleen cell proliferation index normalized to ConA, HIV Peptide 1.1 μg/ml (spleen cells [5]; [10]): 0.5
Spleen cell proliferation index normalized to ConA, HIV Peptide 3.3 μg/ml (spleen cells [5]; [10]): 0.2
Spleen cell proliferation index normalized to ConA, HIV Peptide 10 μg/ml (spleen cells [5]; [10]): 0.2
Spleen cell proliferation index normalized to ConA, Lysozyme 10 μg/ml (spleen cells [5]; [10]): 0.2
Reciprocal anti-T1SP10MN(A) (-Cys) IgG endpoint titer, WEEK 4 (T1SP10MN(A) (−Cys) [6]; [11]): <100
Reciprocal anti-T1SP10MN(A) (-Cys) IgG endpoint titer, WEEK 6 (T1SP10MN(A) (−Cys) [6]; [11]): <100
Reciprocal anti-T1SP10MN(A) (-Cys) IgG endpoint titer, WEEK 8 (T1SP10MN(A) (−Cys) [6]; [11]): <100
Reciprocal anti-T1SP10MN(A) (-Cys) IgG1 endpoint titer (T1SP10MN(A) (−Cys) [6]; [12]): <100
Reciprocal anti-T1SP10MN(A) (-Cys) IgG2a endpoint titer (T1SP10MN(A) (−Cys) [6]; [12]): <100
Reciprocal anti-T1SP10MN(A) (-Cys) IgG2b endpoint titer (T1SP10MN(A) (−Cys) [6]; [12]): <100
Reciprocal anti-T1SP10MN(A) (−Cys) IgG (GMT) endpoint titer (T1SP10MN(A) (−Cys) [6]; Experiment 2, geometric mean of individual Balb/c mice, 14 days after second immunization): 500
Reciprocal anti-T1SP10MN(A) (−Cys) IgG1 (pool) endpoint titer (T1SP10MN(A) (−Cys) [6]; [13]): <1000
Reciprocal anti-T1SP10MN(A) (−Cys) IgG2a (pool) endpoint titer (T1SP10MN(A) (−Cys) [6]; [13]): <1000
Reciprocal anti-T1SP10MN(A) (−Cys) IgG (pool) endpoint titer (T1SP10MN(A) (−Cys) [6]; Experiment 2, pooled serum n=5 Balb/c, immunized days 0 and 21, 14 days after second immunization): <1000
IgG serum titer specific for T1SP10MN(A) (−Cys), Mouse #1 (T1SP10MN(A) (−Cys) [6]; [14]): 594
IgG serum titer specific for T1SP10MN(A) (−Cys), Mouse #2 (T1SP10MN(A) (−Cys) [6]; [14]): 50
IgG serum titer specific for T1SP10MN(A) (−Cys), Mouse #3 (T1SP10MN(A) (−Cys) [6]; [14]): 50
IgG serum titer specific for T1SP10MN(A) (−Cys), Mouse #4 (T1SP10MN(A) (−Cys) [6]; [14]): 50
IgG serum titer specific for T1SP10MN(A) (−Cys), Mouse #5 (T1SP10MN(A) (−Cys) [6]; [14]): 50
Geometric Mean IgG serum titer specific for T1SP10MN(A) (−Cys), GMT (T1SP10MN(A) (−Cys) [6]; Experiment 4, n=5 Balb/c, day 41, 13 days after secondary immunization): 82
Reciprocal anti-T1SP10MN(A) (−Cys) IgG1 endpoint titer (T1SP10MN(A) (−Cys) [6]; [15]): <100
Reciprocal anti-T1SP10MN(A) (−Cys) IgG2a endpoint titer (T1SP10MN(A) (−Cys) [6]; [15]): <100
Reciprocal anti-T1SP10MN(A) (−Cys) IgG2b endpoint titer (T1SP10MN(A) (−Cys) [6]; [15]): <100
